In patent US7351690B2, “Knockout identification of target-specific sites in peptides” (priority 2000, dated 2008):
Square brackets hold non-standard residues; d marks the D form. Ends that are not written are not given here. Nle = CCCC[C@H](N)C(=O)O

Tests used:
hMC4-R = molecular target: T1, hMC4-R (Homo sapiens, UniProt P32245); assay: competitive inhibition binding assay, 125I-NDP-alpha-MSH, hMC4-R membranes; conditions: 1 μM test peptide; 0.4 nM 125I-NDP-alpha-MSH; hMC4-R membranes
T1 construct: expressed in transfected cells
Description: (§1) The competitive inhibition binding assay was conducted using membranes prepared from hMC3-R, hMC4-R, hMC5-R, and B-16 mouse melanoma cells (containing MC1-R) using 0.4 nM ^125I-NDP-alpha-MSH (New England Nuclear, Boston, Mass., USA) in 50 mM HEPES buffer containing 1 mM MgCl2, 2 mM CaCl2, and 5 mM KCl, at pH 7.2. The assay tube also contained a chosen concentration of the test peptide of this invention complexed to a rhenium metal ion, typically at a 1 μM concentration, for determining its efficacy in inhibiting the binding of ^125I-NDP-alpha-MSH to its receptor. Non-specific binding was measured by complete inhibition of binding of ^125I-NDP-alpha-MSH in the assay with the presence of 1 μM alpha-MSH. Incubation was for 90 minutes at room temperature, after which the assay mixture was filtered and the membranes washed three times with ice cold buffer. The filter was dried and counted in a gamma counter for remaining radioactivity bound to the membranes. 100% specific binding was defined as the difference in radioactivity (cpm) bound to cell membranes in the absence and presence of 1 μM alpha-MSH. The cpm obtained in presence of test compounds were normalized with respect to 100% specific binding to determine the percent inhibition of ^125I-NDP-alpha MSH binding. Each assay was conducted in triplicate and the actual mean valves are described.

MC1-R = molecular target: T2, MC1-R (Mus musculus, UniProt Q01727); assay: competitive inhibition binding assay, 125I-NDP-alpha-MSH, B-16 mouse melanoma cell membranes; conditions: 1 μM test peptide; 0.4 nM 125I-NDP-alpha-MSH; B-16 mouse melanoma cell membranes
T2 construct: membranes prepared from hMC3-R, hMC4-R, hMC5-R, and B-16 mouse melanoma cells (containing MC1-R); endogenous in cells; host or cells: B-16 mouse melanoma cells (membranes)
Description: as §1

hMC3-R = molecular target: T3, hMC3-R (Homo sapiens, UniProt P41968); assay: competitive inhibition binding assay, 125I-NDP-alpha-MSH, hMC3-R membranes; conditions: 1 μM test peptide; 0.4 nM 125I-NDP-alpha-MSH; hMC3-R membranes
T3 construct: expressed in transfected cells
Description: as §1

hMC5-R = molecular target: T4, hMC5-R (Homo sapiens, UniProt P33032); assay: competitive inhibition binding assay, 125I-NDP-alpha-MSH, hMC5-R membranes; conditions: 1 μM test peptide; 0.4 nM 125I-NDP-alpha-MSH; hMC5-R membranes
T4 construct: expressed in transfected cells
Description: as §1

T4 sequence (P33032 whole entry): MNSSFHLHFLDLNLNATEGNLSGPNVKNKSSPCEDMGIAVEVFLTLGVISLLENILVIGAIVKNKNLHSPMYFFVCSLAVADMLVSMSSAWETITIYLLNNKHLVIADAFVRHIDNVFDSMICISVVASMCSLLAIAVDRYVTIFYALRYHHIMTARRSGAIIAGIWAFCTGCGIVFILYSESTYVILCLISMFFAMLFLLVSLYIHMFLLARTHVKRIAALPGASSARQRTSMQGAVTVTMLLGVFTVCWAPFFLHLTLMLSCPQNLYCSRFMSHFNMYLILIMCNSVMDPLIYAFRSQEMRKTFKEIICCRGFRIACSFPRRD
T2 sequence (Q01727 whole entry): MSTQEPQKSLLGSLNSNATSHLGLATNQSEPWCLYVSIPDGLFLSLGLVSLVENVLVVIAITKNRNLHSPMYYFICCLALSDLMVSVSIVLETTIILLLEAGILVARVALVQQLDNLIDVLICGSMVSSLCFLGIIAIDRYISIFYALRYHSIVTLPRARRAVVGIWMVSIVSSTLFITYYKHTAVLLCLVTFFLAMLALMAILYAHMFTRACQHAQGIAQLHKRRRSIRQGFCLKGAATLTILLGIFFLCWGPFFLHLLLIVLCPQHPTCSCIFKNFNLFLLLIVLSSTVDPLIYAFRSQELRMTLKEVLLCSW
T1 sequence (P32245 whole entry): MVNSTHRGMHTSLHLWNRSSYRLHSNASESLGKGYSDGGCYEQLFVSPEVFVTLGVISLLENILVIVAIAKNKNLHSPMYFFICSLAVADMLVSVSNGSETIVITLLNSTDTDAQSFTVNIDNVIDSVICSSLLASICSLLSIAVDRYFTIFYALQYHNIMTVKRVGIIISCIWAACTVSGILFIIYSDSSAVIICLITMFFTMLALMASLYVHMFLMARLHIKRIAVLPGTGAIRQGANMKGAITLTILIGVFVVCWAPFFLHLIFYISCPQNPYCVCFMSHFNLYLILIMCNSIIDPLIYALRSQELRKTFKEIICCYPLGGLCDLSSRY
T3 sequence (P41968 whole entry): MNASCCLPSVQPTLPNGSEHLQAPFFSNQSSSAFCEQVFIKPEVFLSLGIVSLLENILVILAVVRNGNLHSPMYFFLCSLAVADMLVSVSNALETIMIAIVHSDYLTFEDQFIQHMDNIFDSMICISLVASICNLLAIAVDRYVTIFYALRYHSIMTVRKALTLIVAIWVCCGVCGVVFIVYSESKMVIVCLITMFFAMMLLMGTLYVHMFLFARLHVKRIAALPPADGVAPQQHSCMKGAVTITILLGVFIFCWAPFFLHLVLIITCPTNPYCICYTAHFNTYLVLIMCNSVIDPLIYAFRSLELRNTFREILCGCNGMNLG

Substance: Ac-Ser-Tyr-Ser-Nle-Glu-His-Phe-Cys-Arg-Trp-Gly-Lys-Pro-Val-NH2 (Ac-SYS[Nle]EHFCRWGKPV-NH2; not fully specified (bridges); printed as Ac-Ser-Tyr-Ser-Nle-Glu-His-Phe-Cys-Arg-Trp-Gly-Lys-Pro-Val-NH2; numbers in words are those of the source; also: oxorhenium(V) N3S1 chelate (Re(V)=O)) [1-7]
- % Inhibition at 1 μM at Melanocortin Receptor 4 (hMC4-R): 0%
- % Inhibition at 1 μM at Melanocortin Receptor 1 (MC1-R): 68%
- % Inhibition at 1 μM at Melanocortin Receptor 3 (hMC3-R): 0%
- % Inhibition at 1 μM at Melanocortin Receptor 5 (hMC5-R): 0%

Substance: Ac-Ser-Tyr-Ser-Nle-Glu-His-Phe-D-Cys-Arg-Trp-Gly-Lys-Pro-Val-NH2 ({Ac-Ser-Tyr-Ser-Nle-Glu-H2N}-F[dC]RWGKPV-NH2; numbers in words are those of the source; also: oxorhenium(V) N3S1 chelate via Cys (Re(V)=O)) [2-7]
- % Inhibition at 1 μM at Melanocortin Receptor 4 (hMC4-R): 6%
- % Inhibition at 1 μM at Melanocortin Receptor 1 (MC1-R): 54%
- % Inhibition at 1 μM at Melanocortin Receptor 3 (hMC3-R): 0%
- % Inhibition at 1 μM at Melanocortin Receptor 5 (hMC5-R): 0%

Substance: Tyr-Val-Cys-Nle-Gly-His-D-Phe-Arg-Trp-Asp-Arg-Phe-NH2 (YVC[Nle]GH[dF]RWDRF-NH2; also: Re complex) [3-11]
- % Inhibition at 1 μM at Melanocortin Receptor 4 (hMC4-R): 82%
- % Inhibition at 1 μM at Melanocortin Receptor 1 (MC1-R): 95%
- % Inhibition at 1 μM at Melanocortin Receptor 3 (hMC3-R): 85%
- % Inhibition at 1 μM at Melanocortin Receptor 5 (hMC5-R): 92%

Substance: Tyr-Val-Cys-Nle-Gly-His-Phe-Arg-Trp-Asp-Arg-Phe-NH2 (YVC[Nle]GHFRWDRF-NH2; not fully specified (bridges); printed as Tyr-Val-Cys-Nle-Gly-His-Phe-Arg-Trp-Asp-Arg-Phe-NH2; numbers in words are those of the source; also: oxorhenium(V) N3S1 chelate (Re=O) with Cys) [4-10]
- % Inhibition at 1 μM at Melanocortin Receptor 4 (hMC4-R): 2%
- % Inhibition at 1 μM at Melanocortin Receptor 1 (MC1-R): 28%
- % Inhibition at 1 μM at Melanocortin Receptor 3 (hMC3-R): 10%
- % Inhibition at 1 μM at Melanocortin Receptor 5 (hMC5-R): 17%

Substance: Tyr-Val-Nle-Cys-Gly-His-D-Phe-Arg-Trp-Asp-Arg-Phe-NH2 (YV[Nle]CGH[dF]RWDRF-NH2; not fully specified (bridges); printed as Tyr-Val-Nle-Cys-Gly-His-D-Phe-Arg-Trp-Asp-Arg-Phe-NH2; numbers in words are those of the source; also: oxorhenium(V) N3S1 chelate complex (Re=O)) [3-10]
- % Inhibition at 1 μM at Melanocortin Receptor 4 (hMC4-R): 80%
- % Inhibition at 1 μM at Melanocortin Receptor 1 (MC1-R): 84%
- % Inhibition at 1 μM at Melanocortin Receptor 3 (hMC3-R): 78%
- % Inhibition at 1 μM at Melanocortin Receptor 5 (hMC5-R): 86%

Substance: Tyr-Val-Nle-Cys-Gly-His-Phe-Arg-Trp-Asp-Arg-Phe-NH2 (YV[Nle]CGHFRWDRF-NH2; not fully specified (bridges); printed as Tyr-Val-Nle-Cys-Gly-His-Phe-Arg-Trp-Asp-Arg-Phe-NH2; numbers in words are those of the source; also: oxorhenium(V) N3S1 chelate (Re=O) with Cys) [4-9]
- % Inhibition at 1 μM at Melanocortin Receptor 4 (hMC4-R): 4%
- % Inhibition at 1 μM at Melanocortin Receptor 1 (MC1-R): 1%
- % Inhibition at 1 μM at Melanocortin Receptor 3 (hMC3-R): 19%
- % Inhibition at 1 μM at Melanocortin Receptor 5 (hMC5-R): 43%

Substance: Tyr-Val-Nle-Cys-His-D-Phe-Arg-Trp-Asp-Arg-Phe-NH2 (YV[Nle]CH[dF]RWDRF-NH2; not fully specified (bridges); printed as Tyr-Val-Nle-Cys-His-D-Phe-Arg-Trp-Asp-Arg-Phe-NH2; numbers in words are those of the source; also: oxorhenium(V) N3S1 chelate complex (Re=O)) [5-8]
- % Inhibition at 1 μM at Melanocortin Receptor 4 (hMC4-R): 86%
- % Inhibition at 1 μM at Melanocortin Receptor 1 (MC1-R): 95%
- % Inhibition at 1 μM at Melanocortin Receptor 3 (hMC3-R): 89%
- % Inhibition at 1 μM at Melanocortin Receptor 5 (hMC5-R): 98%

Substance: Tyr-Val-Nle-Gly-Cys-D-Phe-Arg-Trp-Asp-Arg-Phe-NH2 (YV[Nle]GC[dF]RWDRF-NH2; not fully specified (bridges); printed as Tyr-Val-Nle-Gly-Cys-D-Phe-Arg-Trp-Asp-Arg-Phe-NH2; numbers in words are those of the source; also: oxorhenium(V) N3S1 chelate complex (Re=O)) [5-7]
- % Inhibition at 1 μM at Melanocortin Receptor 4 (hMC4-R): 69%
- % Inhibition at 1 μM at Melanocortin Receptor 1 (MC1-R): 89%
- % Inhibition at 1 μM at Melanocortin Receptor 3 (hMC3-R): 70%
- % Inhibition at 1 μM at Melanocortin Receptor 5 (hMC5-R): 88%

Substance: Tyr-Val-Nle-Gly-Cys-His-D-Phe-Arg-Trp-Asp-Arg-Phe-NH2 (YV[Nle]GCH[dF]RWDRF-NH2; not fully specified (bridges); printed as Tyr-Val-Nle-Gly-Cys-His-D-Phe-Arg-Trp-Asp-Arg-Phe-NH2; numbers in words are those of the source; also: oxorhenium(V) N3S1 chelate complex (Re=O)) [3-9]
- % Inhibition at 1 μM at Melanocortin Receptor 4 (hMC4-R): 55%
- % Inhibition at 1 μM at Melanocortin Receptor 1 (MC1-R): 77%
- % Inhibition at 1 μM at Melanocortin Receptor 3 (hMC3-R): 69%
- % Inhibition at 1 μM at Melanocortin Receptor 5 (hMC5-R): 67%

Substance: Tyr-Val-Nle-Gly-Cys-His-Phe-Arg-Trp-Asp-Arg-Phe-NH2 (YV[Nle]GCHFRWDRF-NH2; not fully specified (bridges); printed as Tyr-Val-Nle-Gly-Cys-His-Phe-Arg-Trp-Asp-Arg-Phe-NH2; numbers in words are those of the source; also: oxorhenium(V) N3S1 chelate (Re=O) with Cys) [4-8]
- % Inhibition at 1 μM at Melanocortin Receptor 4 (hMC4-R): −1%
- % Inhibition at 1 μM at Melanocortin Receptor 1 (MC1-R): 13%
- % Inhibition at 1 μM at Melanocortin Receptor 3 (hMC3-R): 33%
- % Inhibition at 1 μM at Melanocortin Receptor 5 (hMC5-R): 45%

Substance: Tyr-Val-Nle-Gly-His-Cys-Arg-Trp-Asp-Arg-Phe-NH2 (YV[Nle]GHCRWDRF-NH2; numbers in words are those of the source; also: oxorhenium(V) N3S1 chelate (Re=O) with Cys) [5-6]
- % Inhibition at 1 μM at Melanocortin Receptor 4 (hMC4-R): 4%
- % Inhibition at 1 μM at Melanocortin Receptor 1 (MC1-R): 74%
- % Inhibition at 1 μM at Melanocortin Receptor 3 (hMC3-R): 26%
- % Inhibition at 1 μM at Melanocortin Receptor 5 (hMC5-R): 21%

Substance: Tyr-Val-Nle-Gly-His-Cys-D-Phe-Arg-Trp-Asp-Arg-Phe-NH2 [3-7] (YV[Nle]GHC[dF]RWDRF-NH2; numbers in words are those of the source; also: oxorhenium(V) N3S1 chelate complex (Re=O))
- % Inhibition at 1 μM at Melanocortin Receptor 4 (hMC4-R): 28%
- % Inhibition at 1 μM at Melanocortin Receptor 1 (MC1-R): 39%
- % Inhibition at 1 μM at Melanocortin Receptor 3 (hMC3-R): 50%
- % Inhibition at 1 μM at Melanocortin Receptor 5 (hMC5-R): 56%

Substance: Tyr-Val-Nle-Gly-His-Cys-D-Phe-Arg-Trp-Asp-Arg-Phe-NH2 [3-8] (YV[Nle]GHC[dF]RWDRF-NH2; numbers in words are those of the source; also: oxorhenium(V) N3S1 chelate complex (Re=O))
- % Inhibition at 1 μM at Melanocortin Receptor 4 (hMC4-R): 55%
- % Inhibition at 1 μM at Melanocortin Receptor 1 (MC1-R): 86%
- % Inhibition at 1 μM at Melanocortin Receptor 3 (hMC3-R): 60%
- % Inhibition at 1 μM at Melanocortin Receptor 5 (hMC5-R): 84%

Substance: Tyr-Val-Nle-Gly-His-Cys-Phe-Arg-Trp-Asp-Arg-Phe-NH2 (YV[Nle]GHCFRWDRF-NH2; numbers in words are those of the source; also: oxorhenium(V) N3S1 chelate (Re=O) with Cys) [4-7]
- % Inhibition at 1 μM at Melanocortin Receptor 4 (hMC4-R): 4%
- % Inhibition at 1 μM at Melanocortin Receptor 1 (MC1-R): −4%
- % Inhibition at 1 μM at Melanocortin Receptor 3 (hMC3-R): 17%
- % Inhibition at 1 μM at Melanocortin Receptor 5 (hMC5-R): 15%

Substance: Tyr-Val-Nle-Gly-His-D-Phe-Arg-Cys-Asp-Arg-Phe-NH2 (YV[Nle]GH[dF]RCDRF-NH2; numbers in words are those of the source; also: oxorhenium(V) N3S1 chelate complex (Re=O)) [5-4]
- % Inhibition at 1 μM at Melanocortin Receptor 4 (hMC4-R): 18%
- % Inhibition at 1 μM at Melanocortin Receptor 1 (MC1-R): 86%
- % Inhibition at 1 μM at Melanocortin Receptor 3 (hMC3-R): 11%
- % Inhibition at 1 μM at Melanocortin Receptor 5 (hMC5-R): 58%

Substance: Tyr-Val-Nle-Gly-His-D-Phe-Arg-Cys-Trp-Asp-Arg-Phe-NH2 (YV[Nle]GH[dF]RCWDRF-NH2; also: Re complex) [3-5]
- % Inhibition at 1 μM at Melanocortin Receptor 4 (hMC4-R): 33%
- % Inhibition at 1 μM at Melanocortin Receptor 1 (MC1-R): 83%
- % Inhibition at 1 μM at Melanocortin Receptor 3 (hMC3-R): 45%
- % Inhibition at 1 μM at Melanocortin Receptor 5 (hMC5-R): 81%

Substance: Tyr-Val-Nle-Gly-His-D-Phe-Arg-Trp-Asp-Arg-Cys-NH2 (YV[Nle]GH[dF]RWDRC-NH2; numbers in words are those of the source; also: oxorhenium(V) N3S1 chelate complex (Re=O)) [5-1]
- % Inhibition at 1 μM at Melanocortin Receptor 4 (hMC4-R): 95%
- % Inhibition at 1 μM at Melanocortin Receptor 1 (MC1-R): 101%
- % Inhibition at 1 μM at Melanocortin Receptor 3 (hMC3-R): 92%
- % Inhibition at 1 μM at Melanocortin Receptor 5 (hMC5-R): 98%
